# Reference: patent publication US20230348614A1 (VISTERRA, published 2023)
# T1: G169A (Homo sapiens, UniProt P18827)
# T1 construct: clone of the alanine scanning library on HEK-293T cells; m17 with one substitution; also called CD138 G169A
# T1 sequence (CD138 (SDC1), full length, point mutant, looked up): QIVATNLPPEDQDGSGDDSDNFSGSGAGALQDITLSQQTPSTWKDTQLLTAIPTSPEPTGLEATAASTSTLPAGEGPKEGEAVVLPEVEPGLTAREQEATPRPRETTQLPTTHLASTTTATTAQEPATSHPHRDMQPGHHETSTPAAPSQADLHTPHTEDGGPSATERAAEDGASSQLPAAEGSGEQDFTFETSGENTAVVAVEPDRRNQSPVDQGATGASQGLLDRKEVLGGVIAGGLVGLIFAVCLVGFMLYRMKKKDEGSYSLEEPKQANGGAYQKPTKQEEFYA
# T2: A168S (Homo sapiens, UniProt P18827)
# T2 construct: clone of the alanine scanning library on HEK-293T cells; m17 with one substitution (alanine changed to serine); also called CD138 A168S
# T2 sequence (CD138 (SDC1), full length, point mutant, looked up): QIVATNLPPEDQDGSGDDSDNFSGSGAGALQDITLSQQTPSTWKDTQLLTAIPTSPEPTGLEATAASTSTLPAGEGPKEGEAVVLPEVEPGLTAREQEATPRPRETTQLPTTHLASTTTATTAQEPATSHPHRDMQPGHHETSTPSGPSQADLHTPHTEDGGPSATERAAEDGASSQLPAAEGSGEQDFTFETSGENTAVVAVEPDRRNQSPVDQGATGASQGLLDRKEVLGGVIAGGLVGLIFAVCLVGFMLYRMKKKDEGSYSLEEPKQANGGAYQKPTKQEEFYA
# T3: E111A (Homo sapiens, UniProt P18827)
# T3 construct: clone of the alanine scanning library on HEK-293T cells; m17 with one substitution; also called CD138 E111A
# T3 sequence (CD138 (SDC1), full length, point mutant, looked up): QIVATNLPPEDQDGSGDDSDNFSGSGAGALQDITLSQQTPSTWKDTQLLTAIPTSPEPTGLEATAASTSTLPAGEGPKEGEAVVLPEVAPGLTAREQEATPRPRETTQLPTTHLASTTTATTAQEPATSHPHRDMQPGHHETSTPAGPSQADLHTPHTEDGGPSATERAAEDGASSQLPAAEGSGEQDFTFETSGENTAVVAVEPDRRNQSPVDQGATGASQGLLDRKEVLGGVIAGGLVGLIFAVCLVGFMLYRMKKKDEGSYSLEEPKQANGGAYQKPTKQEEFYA
# T4: G238A (Homo sapiens, UniProt P18827)
# T4 construct: clone of the alanine scanning library on HEK-293T cells; m17 with one substitution; also called CD138 G238A
# T4 sequence (CD138 (SDC1), full length, point mutant, looked up): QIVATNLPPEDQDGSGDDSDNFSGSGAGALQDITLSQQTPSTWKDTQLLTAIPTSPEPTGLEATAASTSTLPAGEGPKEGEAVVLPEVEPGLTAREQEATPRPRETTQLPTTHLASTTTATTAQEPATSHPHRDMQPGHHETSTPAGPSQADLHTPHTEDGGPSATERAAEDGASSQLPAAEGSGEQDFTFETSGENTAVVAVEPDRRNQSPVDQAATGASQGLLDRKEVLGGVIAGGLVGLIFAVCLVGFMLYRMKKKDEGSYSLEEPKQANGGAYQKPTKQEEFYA
# T5: D210A (Homo sapiens, UniProt P18827)
# T5 construct: clone of the alanine scanning library on HEK-293T cells; m17 with one substitution; also called CD138 D210A
# T5 sequence (CD138 (SDC1), full length, point mutant, looked up): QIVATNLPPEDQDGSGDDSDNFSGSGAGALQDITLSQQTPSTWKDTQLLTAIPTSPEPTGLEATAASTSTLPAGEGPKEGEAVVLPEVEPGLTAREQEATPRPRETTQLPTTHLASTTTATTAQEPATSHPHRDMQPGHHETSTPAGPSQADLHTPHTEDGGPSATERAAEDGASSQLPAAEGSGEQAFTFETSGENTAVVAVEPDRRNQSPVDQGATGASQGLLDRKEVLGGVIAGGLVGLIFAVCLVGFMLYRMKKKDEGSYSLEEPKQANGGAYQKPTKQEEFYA
# What was measured:
# S151A (Homo sapiens) = S151A (Homo sapiens) (UniProt P18827); assay: alanine scan: flow cytometry on HEK-293T cells expressing the mutant clone, 4320 Fab 0.50 ug/mL, normalised to WT CD138; Range %WT Binding 6; Normalized 4320 vs. BB4 24.5
# G169A = molecular target: T1, G169A; assay: alanine scan: flow cytometry on HEK-293T cells expressing the mutant clone, 4320 Fab 0.50 ug/mL, normalised to WT CD138; Range %WT Binding 2; Normalized 4320 vs. BB4 44.4
# Protocol: (§1) Serial dilutions of each MAb were tested for immunoreactivity against cells expressing target protein (WT) or vector alone. Validation of target expression and optimization of detection and binding of anti-CD138 antibodies both by flow cytometry was completed in replicate (N=4). The optimal screening concentration for each MAb was determined based on the raw signal values and signal-to-background calculations specifically optimized for each test article. Optimized parameters included the use of 10% goat serum as blocking reagent. Primary antibody staining was for 60 minutes at 25° C. Wash buffer include phosphate buffered saline (divalent metal ion free), pH 7.4. […] Secondary antibodies were diluted 1:400 and incubated for 30 minutes at 25° C.
# (§2) Library screens of very-high-affinity mAbs can fail to yield critical residues for antibody binding due to deficiencies of such an assay to detect and differentiate critical vs. less critical binding based on affinity and quantification of cell binding. One common approach in the literature is the use of monovalent antibody derived fragments such as Fab usually weakens binding sufficiently to allow identification of critical residues for binding. […] Binding of each test Ab to each mutant clone in the alanine scanning library was determined, in duplicate, and likewise evaluated by flow cytometry.
# A168S = molecular target: T2, A168S; assay: alanine scan: flow cytometry on HEK-293T cells expressing the mutant clone, 4320 Fab 0.50 ug/mL, normalised to WT CD138; Range %WT Binding 3; Normalized 4320 vs. BB4 57.9
# Protocol: as §1, §2
# E111A = molecular target: T3, E111A; assay: alanine scan: flow cytometry on HEK-293T cells expressing the mutant clone, 4320 Fab 0.50 ug/mL, normalised to WT CD138; Range %WT Binding 8; Normalized 4320 vs. BB4 10.4
# Protocol: as §1, §2
# G238A = molecular target: T4, G238A; assay: alanine scan: flow cytometry on HEK-293T cells expressing the mutant clone, 4320 Fab 0.50 ug/mL, normalised to WT CD138; Range %WT Binding 9; Normalized 4320 vs. BB4 30.2
# Protocol: as §1, §2
# D210A = molecular target: T5, D210A; assay: alanine scan: flow cytometry on HEK-293T cells expressing the mutant clone, 4320 Fab 0.50 ug/mL, normalised to WT CD138; Range %WT Binding 15; Normalized 4320 vs. BB4 56.7
# Protocol: as §1, §2
binder,measurement,setting,value
"Fab fragment of mAb 4320 (Fab, V domains shown, N-terminal Q1 observed as pyroglutamic acid (PCA) in the 138-2-5 complex, In the crystal structures heavy chain residues 1-213 were traced; also called Fab4320) VH: QVQLVQSGAEVKKPGASVKVSCKASGYSFSSYYMHWVRQAPGQGLEWMGTIHPSDSTTNYNQKFQGRVTMTVDTSTRTAYMELSSLRSEDTAVYYCANFVYWGQGTTVTVSS VL: DIVMTQTPLSLSVTPGQPASISCKSSKSLLYKDGKTYLNWFLQKPGQSPQLLIYVVSTRASGVPDRFSGSGSGTDFTLKISRVEAEDVGVYYCQQLVEYPYTFGQGTKLEIKR",Mean %WT Binding,S151A (Homo sapiens),8.9 %WT
same,Mean %WT Binding,G169A,13.2 %WT
same,Mean %WT Binding,A168S,44.9 %WT
same,Mean %WT Binding,E111A,13 %WT
same,Mean %WT Binding,G238A,28.3 %WT
same,Mean %WT Binding,D210A,42.7 %WT
